What follows are proteins tested against Factor X, P00742.
Factor X, P00742, sequence (P00742 whole entry, looked up): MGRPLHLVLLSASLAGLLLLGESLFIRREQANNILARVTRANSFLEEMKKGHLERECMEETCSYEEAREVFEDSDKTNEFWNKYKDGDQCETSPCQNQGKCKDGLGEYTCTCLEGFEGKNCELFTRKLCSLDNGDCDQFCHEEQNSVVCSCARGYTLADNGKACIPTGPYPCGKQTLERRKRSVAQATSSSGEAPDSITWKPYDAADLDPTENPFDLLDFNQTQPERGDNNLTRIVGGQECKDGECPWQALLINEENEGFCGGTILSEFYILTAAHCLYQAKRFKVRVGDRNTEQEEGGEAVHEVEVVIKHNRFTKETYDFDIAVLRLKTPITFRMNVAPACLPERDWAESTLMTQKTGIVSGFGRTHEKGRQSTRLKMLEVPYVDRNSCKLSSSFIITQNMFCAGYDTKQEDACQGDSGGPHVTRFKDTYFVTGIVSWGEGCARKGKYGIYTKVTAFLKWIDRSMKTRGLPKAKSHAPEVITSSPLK

Row | Protein | % of WT kcat/KM [%] | kcat/KM [M⁻¹ s⁻¹]
1 | FIXa K247N/N249S/R318Y/T343R/E410N (protein) chain 1: not shown chain 2: not shown | 439 | 2e+08
2 | FIXa K247N/N249S/R338E/T343R/R403E (protein) chain 1: not shown chain 2: not shown | 1215 | 5.6e+08
3 | FIXa Y155F/K247N/N249S/R338E/T343R/E410N (protein) chain 1: not shown chain 2: not shown | 391 | 1.8e+08
4 | FIXa K247N/N249S/R338E/T343R/E410N (protein) chain 1: not shown chain 2: not shown | 676 | 3.1e+08
5 | FIXa Y155F/K247N/N249S/R338E/T343R/R403E (protein) chain 1: not shown chain 2: not shown | 1269 | 5.9e+08
